Test results: a protein production outcome set (Wang et al. 2014)

Experiment: label from the status in PepcDB records
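Further: failed if final PepcDB status was selected cloned or expressed and not failed if soluble or beyond.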

| Sequence | protein production |
| --- | --- |
| MVVKFTKSEALHKEALEHIVGGVNSPSRSFKAVGGGAPIAMERGKGAYFWDVDGNKYIDYLAAYGPIITGHAHPHITKAITTAAENGVLYGTPTALEVKFAKMLKEAMPALDKVRFVNSGTEAVMTTIRVARAYTGRTKIMKFAGCYHGHSDLVLVAAGSGPSTLGTPDSAGVPQSIAQEVITVPFNNVETLKEALDKWGHEVAAILVEPIVGNFGIVEPKPGFLEKVNELVHEAGALVIYDEVITAFRFMYGGAQDLLGVTPDLTALGKVIGGGLPIGAYGGKKEIMEQVAPLGPAYQAGTMAGNPASMASGIACLEVLQQEGLYEKLDELGAMLEKGILEQAAKHNIDITLNRLKGALTVYFTTNTIEDYDAAQDTDGEMFGKFFKLMLQEGVNLAPSKYEAWFLTTEHTKEDIEYTIEAVGRAFAALADNK | not failed |
| MVSTLGSDTFTSISAHDLHGKLGNIHLIDVRENDDFKEGHIPTSRNIPMDILLKEPEKYINKTDEYYIVCQAGVKSEKTCKELWSKGYKVINIKDGTDSYKQPLER | failed |
| MTEVALSPRGRSVAYTVRRLSPGQAPAPRARLYVARTSGRDDPRLLFQDEHDIRAPAWHPDGTHLAFVRPVNGTPQVFVIPLNGGVPYRLTDTPHGAQAPQWGPDGERLLFASHVPEPAVRRQTARRPPTERPGRTASDTIRTPPPDTLLVLRHDRTLRPVDTLAVDADGRPQTPTDTTDTLHVPRHSSLSDTLTAPPVRRLAGLSPDSLQAVFDRFRLRSDTTTVAVRPDTAAAPNGTLAQVRRWMHQNRRSGTALVSSRLEIQGERQLRPTPTYRHHYVVDLPAGIRSGRPPRPTPRLLTGGYRSYGQADWLPGGEQVVVSGMPATNESPDRVRRRNLYVADLNTPRLRRLLRIENHTLTSPSVTTDGSTVAFRVESLAPSSDAPAEIGLFALDGRSQPRILTSALDRDVTSVTWAPDGWYLYTTAPSEGGRPLFRFTPFAQDTTDGAPQAPSPTLPTDRATSRNTFTFDSTMVRPAEAEQLTSAARAIHSFDVTDATAVYASTDPTTPSALYANTVSFNNERPLATPNAEWLSRRQVAPPDRMTVSHDSLAVTGWVTRPVAFADSLRHPLFVQARGGPPALSAPYTPEAWFERQYLTGRGLGLVEGFPRGSAGFGTAFRRANDKNWGPGPARDILALADSAAALSWTDSTRVALGGTGYGGTLTAWILGRTNRFAAAVALNGVYDLPALLGGGRAWRLVPAEFGGYPWDGVPPRSLGDPVLSSRLPSPDSTAQTPWTALHRNSPLTYAHRIRTPLLLMQGGADRRVGPSQGERLYKRLKILDRPVEYVRYPEVGHDMSASASPRQRLDRLVRTYEFLARFLEPPAPPTAPQSPPRP | failed |
| MSENQKEVSPPQAISVKSEASSSIFSKPISTSSPAGLAAAQRVTPGKLSTLLLEMGPLAIRHITQTLCLDIPCFKDLSSSKQRRLIMSAMESGDKEKSVVFEKIGWGQWSAKRVDPANFDKELEATNFANAKVKDLISQESQRRKSNNSNSNSGGKVEMPMKVEHNITNIDGATTPPTAVASTTIPVNIKRSKSPLAAANVVYIDENALASEDEDEEFDEDDHHLHYQNKSRNSSNNFGKSSNGDPYSFGRRRSQVVFADSTPENIEHEIIAQKIRPLLRNRRRSSIKPHTPFISKLNTHQDSSYLSPNTTSTTTPSNNNSNSNQAKIDLEKLTATSEPTSRRASRLSVSKESSIRSTLFPNKNYLIVTTNPNSKATSVSTSPKLEEQMNVSSNPIVLSDKEKHRVASQHLNGESSPQLVPHSHHQPHSDTDEEDWESIGAASLRNNSLAPNIDSVASSTNGVVSPKPTNPSFTNSQNGDIEPPLQHDQQKHEQQPRNGEDNSAAFLLMSLKS | not failed |
| MLENSITYEKPLYIIKMNQRKKIVQIALPAMAENLLQMLMGVVDNYLVAQIGLVAVSGVSVANNIITIYQAIFIALGAAVSSLVAKSLGEDNQARVRFYQSESVAITLMLSVVLGFISFVFGSNMLHLLGTTDSVTQAGGIYLAIVGGLVVSLGLQTTLGAILRAQGKARLPMYVSFLTNIVNVILATTAIYIGHWGIVGVAAATVLSRFLGTFVLACQLPIKAILRSMRIKIDKAFLAIALPSAGERLMMRAGDVVIIAIIVKFGTAAVAGNAIGETLTQFNYMPGMGVATATVILVAHNLGQGKKKVIKEVVRESYIISTVFMLLVGACIFFGGRQLTYLFTENKAALQASLVVLFYSFIGGPATSGTLVFTAVWQGLGKAKLTFYATTVGMWLIRIVLGYYLGVSLNLGLAGVWLATLADNVFRWLFLYCLYRKYMQGFNNNLSSS | failed |
| MVYDNIKREIIGMLKRMPNKQADWDNDLLPTLKAMFNPKSVSNAKSQLISEGVISQEIVDGKKIITLIKDPYELQAPNVFDEEMFLAYYTDKLKEYFKHKLSTEGPEWDIFDVKEFIMHFPESGDLNDKLIEHPYEVRKSITNVYIEAYEELFNETPNVEFIHIRNPIDCRISLSELSSAHKGKLVEFRAMILQATKLKLRYAKGFYYCPKCGATKTLDLGFWDKPKEVGKSLTCPADGCDCKGLIFDEDLSGKVDFQEIKVQTPLQESIYANKHSTTVFYEFNKPKKAVYSGYVKIVGVPIVKENKNGSVGELYIHAFYIEKDDEDIEEIAKNLNEKDLELINRIAKDKNVIQKLSDYAFREVTGYDMIKRAVLLQLVSSGTNIDMRTSIHILMISDPGVGKSTLMESLIQKFPFVKKVYAVTSSGPGLVGSVVREKAEFGDSWVLKAGVLTEADGGVVCIDEFSRNKEVYDYLLGVMEQQKIEINKAGVIDAVLPARVAILAACNPRFGRFNPDLTVWEQINLPKELLDRFDLIFVIKDKIDKKKDEDIADFSIDNYNSKVRERKGKSSGKKFVINGVELNDELLLKYVLYARQIEPEISDEARKIIKEYYVSVRKMSEAKGTFGISARQLGSIIRLAVAHAKLRLSEVVKAVDAEEAIRLVDTCLKQIAYDPESGSIDIDKIAGTPKSKRDKVEKVLNIIKEISNSRDDGLAPEEEIYERAERAGLSEKEVEDAINYLKRVGDIYSPKSGYWQLMS | failed |
| MSISRRDFNKLLLAGAAGSAFGLFGSGNTAFAARKRVVVIGGGFGGAATAKYLKKLDPTLAVTLIEPKPAFVTCPFSNWVLGGLRTMKDITHTYTALRTRHGVNVIADRVVSVDAAKGTLRLAGGRVIGYDRLVVSPGIDFKYDTIPGYSQKIAKSKMPHAWQAGPQTILLHRQLQAMKNGGTVVICPPDNPFRCPPGPYERASLIAYYLKQHKPKSKIVILDAKEKFSKQGLFTKGWESRYPGMIELRGSTGGGKVLGVDAKAMTVETDLGAVKGDVINVIPAQKAGKIAFEAGLTNEKGWCPVNPSSFESTIHQGIHVIGDACIAGAMPKSGFAASSQGKVAAVAIINLLRGQEPAPPSLVNTCYSLIGPKYGVSVAGVYQLSPTGIVEIPGSGGRLRPMPATNSWNRRRFSPKAGTPISARISGDKPLDSCGVPAVNHQAPLPLTHKATPDCRKR | failed |
| MKWTTANTKHVNYTAKHELYVGTHTGSFKHLVPASEKTPYGQSNLSDLCALDKDSRVTSLAFGNDDQTEILLGRAKDAVEIHSFTEKGHSRNTVSFNAAPIVGLARYNDKLIAGIGNGEIQSLELEANDESEPVVIATGDQMDHLRQCAQVKSIVATGGKERQNNLKVYDLNADGKQIFTSKNLPNDYLQLEVPVWDSDIGFVDGPSVLATCSRTGYVRIYDTRKQRRPVACFASEEHGMSFTTLVAKGNFIYTGTTMGALKAFDTRRMKTHVHTYKGFTGGISDLHLDATGRFLSSASLDRYVRIHDSETTVLLYQCYVKSKATKILIRPFENEARVTEEPEEVADLQMDRNVSENKSVNATSVDNEYEDMFDQMPTVGDSDNESEEEMSNIKLSKADLKRRSSEKSLKNKKKKVVIS | failed |
| MKELSDVILDRIDAICDEADLLFEDEKSEEAIAKYNEALTLLPEPIEEYEPSAWLISSIGDVYFFDEEYEKALAQFEHAMGCIDSEDNPYLLLRAGQCHFELGQMQDAEDTMHEAYLIEGEEIFEEEDPKYWEFLKSKITIVDLEHHHHHH | not failed |
| MFKKKGCFMNQLEQKLEQDFGIVFSQKDLLETAFTHTSYANEHRLLNISHNERLEFLGDAALQLVISVYLYNRYPNKPEGEMSKMRSTIVREESLAGFTKACGFEQYIRLGKGEEKSGGRERATILGDLWEAFLGALYLDQGLPAVEKFLNQVMIPQVEKGNFDRVIDYKTALQERLQVNGKVDITYTVIDESGPAHAKEFTMQVAVDGKELSTGLGKSKKLAEQAAAKSALEQLGN | failed |
| MYTITDIAPTDAEFIALIAALDAWQETLYPAESNHLLDLSQLPPQTVIALAIRSPQGEAVGCGAIVLSEEGFGEMKRVYIDPQHRGQQLGEKLLAALEAKARQRDCHTLRLETGIHQHAAIALYTRNGYQTRCAFAPYQPDPLSVFMEKP | failed |
